# Results taken from US7951560B2, “Delta 4,5 glycuronidase compositions and methods related thereto” (Massachusetts Institute of Technology, priority 2002, dated 2011).
# “Also recorded” adds a separate entry of the source.
# B1: recombinant Δ4, 5 glycuronidase (Δ4,5^Δ20) (Pedobacter heparinus DSM 2366) (protein)
# chain: MTVTKGNGDDWLKKSTKTAVIQLTRAAQTYTPGMNPRSVNPDGTVRLAPPRDWTTGFFPGTLWYGYELSGDKNLAAEAKRFTLALDTIQYVKDTHDLGFMLYCSYGNAYRVTGDKIYLKPLENGAANLYARFNKKVGAIRSWDFGHWQFPVIIDNLMNLEYLYWAGKEFNKPEWFDAAKTHAVTTMKNHFRKDYSSYHVISYDTLSGKVLQRETHQGLTNESAWARGQAWGLYGYTMSYKDTKDKKFIEHAEHIAAFIMNHPAMPADKIPLWDFDVHNRDRSPRDASAAAVIASALLDLSTQVKDGQKYFKFAEDILKTLSSDEYLAKPGENQFFILKHSVGALLYNSEIDTPLNYADYYYLEALKRYAEIKKIDLKTINQS
# Tests used:
# [1] = Specific activity of recombinant Δ4, 5 glycuronidase purification fractions; type: biochemical; conditions: 800 ng protein, 120 μM ΔUHNAc, 100 μl
# Experimental: (§1) Assay for enzyme activity and determination of kinetic parameters. Standard reactions were carried out at 30° C. and included 100 mM sodium phosphate buffer, pH 6.4, 50 mM NaCl, 500 μM disaccharide substrate and 200 nM enzyme in a 100 μl reaction volume. Hydrolysis of heparin disaccharides was determined spectrophotometrically by measuring the loss of the Δ4, 5 chromophore measured at 232 nm Substrate hydrolysis was calculated using the following molar extinction coefficients empirically determined for each disaccharide substrate: ΔUHNAc, ε232=4,524; ΔUHNAc6S, ε232=4,300; ΔUHNS, ε232=6,600; ΔUHNS,6S, ε232=6,075; ΔUHNH26S, ε232=4,826; ΔU2SHNS, ε232=4,433. Initial rates (Vo) were extrapolated from linear activities representing <10% substrate turnover and fit to pseudo first-order kinetics. For kinetic experiments, disaccharide concentration for each respective substrate was varied from 48 to 400 μM concentrations. Km and kcat values were extrapolated from Vo vs. [S] curves fit to the Michaelis Menten equation by a non-linear, least squares regression.
# (§2) A two-step purification comprised of Ni^+2 chelation chromatography followed by thrombin cleavage to remove the 6× His purification tag, typically yielded over 200 mg of greater than 90% pure enzyme as assessed by SDS-PAGE followed by Coomassie Brilliant Blue staining. […] T. and Linker, A., 1972, Biochemistry 11, 568-72]. While removal of the 6× His tag from the N-terminus of the enzyme was unnecessary for optimal hydrolytic activity, the presence of the histidine tag did appear to instigate protein precipitation over an extended time especially at higher enzyme concentrations. This tag was, therefore removed for all subsequent biochemical experiments. In this manner, the recombinant protein was stable at 4° C. for at least two weeks during which time it remained in solution at protein concentrations exceeding 10 mg/mL under the buffer conditions described.
# [2] = Biochemical conditions for optimal enzyme activity (NaCl, pH, temperature, divalent metals)
# Experimental: For experiments measuring the relative effect of ionic strength on glycuronidase activity, the NaCl concentration was varied from 0.05 to 1 M in 0.1 M sodium phosphate buffer (pH 6.4), 200 μM ΔUHNS,6S and […] under otherwise standard reaction conditions. The effect of pH on catalytic activity was kinetically determined at varying AUHNS,6S concentrations in 0.1 M sodium phosphate buffer at pH 5.2, 5.6, 6.0, 6.4, 6.8, 7.2 and 7.8. Data were fit to Michaelis-Menten kinetics as described above and the relative kcat/Km ratios plotted as a function of pH.
# To determine the optimal reaction conditions for Δ4, 5 glycuronidase activity, we analyzed initial reaction rates as a function of buffer, pH, temperature, and ionic strength (FIG. 6). For these experiments, we used the disulfated heparin disaccharide substrate ΔUHNS,6S. Based on what is known about the degradation of heparin/heparan sulfate-like glycosaminoglycans by flavobacteria as well as initial biochemical characterization of this and related enzymes [Warnick, C. T. and Linker, A., 1972, Biochemistry 11, 568-72], we hypothesized that a heparin disaccharide would be an optimal substrate for the Δ4, 5 glycuronidase. Enzyme activity was routinely monitored by a loss of absorbance at 232 nm, corresponding indirectly to the hydrolysis of the uronic acid from the non-reducing end.
# [3] = Kinetic comparison of native and recombinant enzymes; type: biochemical; conditions: identical reaction conditions, 200 nM enzyme, 500 μM ΔUHNAc
# Experimental: FIG. 7 depicts a kinetic comparison of native and recombinant enzymes. Relative specific activities were measured for both enzyme fractions under identical reaction conditions that included 200 nM enzyme and 500 μM of the heparin disaccharide substrate (ΔUHNAc). Flavobacterial Δ4, 5 (closed circles); recombinant Δ4, 5 (open circles).
# Having established the reaction conditions for optimal Δ4, 5 glycuronidase activity, we next compared the specific activity of the recombinant enzyme (Δ4,5^Δ20) relative to the native enzyme purified directly from F. heparinum (FIG. 7). The activities of both enzyme fractions were measured in parallel under identical reaction conditions.
# [4] = Storage stability and solubility of the recombinant protein after 6× His tag removal; type: physicochemical; conditions: 6× His tag removed, phosphate buffer
# Experimental: as §2
# [5] = substrate: CC(=O)N[C@H]1C(O)O[C@H](CO)[C@@H](O[C@@H]2OC(C(=O)O)=C[C@H](O)[C@H]2O)[C@@H]1O; assay: Kinetic parameters of Δ4, 5 glycuronidase for disaccharide substrates (loss of absorbance at 232 nm, Michaelis-Menten fit); type: biochemical, F. heparinum; conditions: other: 200 nM enzyme, 30° C., pH 6.4, substrate 48 to 400 μM
# Experimental: as §1
# (§3) The specificity of the Δ4, 5 glycuronidase acting on various glycosaminoglycan disaccharide substrates was investigated. The various substrates examined included both heparin and chondroitin disaccharides as well as an hyaluronadate. In particular, we considered the possibility of any structural discriminations pertaining to glycosidic linkage position (1→4 vs. 1→3) and relative sulfation state within the disaccharide. For each substrate, kinetic parameters were determined based on substrate saturation profiles that fit Michaelis-Menten assumptions (FIG. 8).
# [6] = substrate: CC(=O)N[C@H]1C(O)O[C@H](COS(=O)(=O)O)[C@@H](O[C@@H]2OC(C(=O)O)=C[C@H](O)[C@H]2O)[C@@H]1O; assay: as above; type: biochemical, F. heparinum; conditions: other: 200 nM enzyme, 30° C., pH 6.4, substrate 48 to 400 μM
# Experimental: as §1, §3
# [7] = substrate: N[C@H]1C(O)O[C@H](COS(=O)(=O)O)[C@@H](O[C@@H]2OC(C(=O)O)=C[C@H](O)[C@H]2O)[C@@H]1O; assay: as above; type: biochemical, F. heparinum; conditions: other: 200 nM enzyme, 30° C., pH 6.4, substrate 48 to 400 μM
# Experimental: as §1, §3
# [8] = substrate: O=C(O)C1=C[C@H](O)[C@@H](O)[C@H](O[C@H]2[C@H](O)[C@@H](NS(=O)(=O)O)C(O)O[C@@H]2CO)O1; assay: as above; type: biochemical, F. heparinum; conditions: other: 200 nM enzyme, 30° C., pH 6.4, substrate 48 to 400 μM
# Experimental: as §1, §3
# [9] = substrate: O=C(O)C1=C[C@H](O)[C@@H](O)[C@H](O[C@H]2[C@H](O)[C@@H](NS(=O)(=O)O)C(O)O[C@@H]2COS(=O)(=O)O)O1; assay: as above; type: biochemical, F. heparinum; conditions: other: 200 nM enzyme, 30° C., pH 6.4, substrate 48 to 400 μM
# Experimental: as §1, §3
molecule,measurement,setting,value
B1,Sp. Activity,[1]; Crude lysate,4.7 μmoles DiS/min./mg protein
same,Sp. Activity,[1]; Ni^+2 chromatography,12.9 μmoles DiS/min./mg protein
same,Sp. Activity,[1]; Thrombin cleavage,13.6 μmoles DiS/min./mg protein
same,requirement for divalent metal ions,[2],no evidence that metals are either required for catalysis or activate the enzyme
same,pH optimum,"[2]; 0.1 M sodium phosphate pH 5.2-7.8, ΔUHNS,6S, relative kcat/Km",6.4
same,initial reaction rates at highest temperatures,[2]; especially at 42° C.,significantly reduced
same,relative enzyme activities after preincubation (enzyme stability),"[2]; preincubation at 30, 37, and 42° C., then measured at standard 30° C.",no significant change
same,inhibition at 250 mM NaCl,[2]; relative to 100% activity at 100 mM NaCl,approximately 60%
same,specific activity relative to the native Flavobacterial enzyme,[3],approximately three-fold; also recorded: at least two-fold; also recorded: roughly three-fold
same,stable at 4° C.,[4],at least two weeks
same,Km,[5],283 ± 31 µM
same,kcat,[5],15.3 ± 0.9 s⁻¹
same,kcat/Km,[5],54000 M⁻¹ s⁻¹
same,Km,[6],107 ± 15 µM
same,kcat,[6],11.7 ± 0.6 s⁻¹
same,kcat/Km,[6],110000 M⁻¹ s⁻¹
same,Km,[7],235 ± 40 µM
same,kcat,[7],2.4 ± 0.2 s⁻¹
same,kcat/Km,[7],10000 M⁻¹ s⁻¹
same,Km,[8],251 ± 40 µM
same,kcat,[8],4.9 ± 0.4 s⁻¹
same,kcat/Km,[8],20000 M⁻¹ s⁻¹
same,Km,[9],334 ± 57 µM
same,kcat,[9],8.8 ± 0.9 s⁻¹
same,kcat/Km,[9],26000 M⁻¹ s⁻¹
